Experimental data from patent US20220403048A1 (CANCER RESEARCH TECHNOLOGY, published 2022).

T1: biotinylated recombinant human trimeric ARG2 enzyme (Avi-huARG2-His10) (human, UniProt P78540 23-354, biotinylated)
T1 construct: also called avi-Arg2-His10; bio-ARG2
T1 chain: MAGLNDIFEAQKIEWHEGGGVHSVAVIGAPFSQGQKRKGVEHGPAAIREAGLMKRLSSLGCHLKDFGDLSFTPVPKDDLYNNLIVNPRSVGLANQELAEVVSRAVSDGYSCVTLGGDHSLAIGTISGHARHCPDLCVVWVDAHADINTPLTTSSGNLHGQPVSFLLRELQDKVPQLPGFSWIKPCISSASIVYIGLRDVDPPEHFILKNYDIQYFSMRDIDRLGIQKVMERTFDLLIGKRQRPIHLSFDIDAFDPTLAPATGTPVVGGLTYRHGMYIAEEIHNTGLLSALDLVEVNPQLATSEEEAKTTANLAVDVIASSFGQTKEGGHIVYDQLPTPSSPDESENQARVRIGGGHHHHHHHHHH


Target: T1, biotinylated recombinant human trimeric …
Experiment: BLI (OctetRED), biotinylated ARG2 on streptavidin, Fab as analyte
Experimental: An Octet Kinetics Buffer (PBS containing 0.01% BSA and 0.002% Tween20) is typically used as the diluent buffer for the analyte samples and as the flow buffer during the dissociation phase. The experimental data is recorded over time as shift in interference pattern (nm) over time, which is directly proportional to the optical thickness at the biosensor tip, which in turn is an approximate measure of the mass of analyte bound. The proprietary Octet Data Analysis software package can then be used to process data and fit binding models to the data sets. Returned association (kₐ, M⁻¹ s⁻¹) and dissociation (kd, s⁻¹) rate constants allow calculation of dissociation (KD, M) affinity constants.
Typically, an analyte titration range of 1.8 to 120 nM was used.

Binder	Kd [nM]	koff [s⁻¹]	kon [M⁻¹ s⁻¹]
C0021021 Fab (Fab, V domains shown, Human Fab) VH: EVQLLESGGGLVQPGGSLRLSCAASGFTFSSYAMSWVRQAPGKGLEWVSSILFSPGSTYYADSVKGRFTISRDNSKNTLYLQMNSLRAEDTAVYYCARLRADLGLYMDLWGRGTLVTVSS VL: QSVLTQPPSVSAAPGQKVTISCSGSSSNIGNHYVSWYQQLPGTAPKLLIYDNSERPSGIPDRFSGSKSGTSATLGITGLQTGDEADYYCGTWDSSLSALVFGGGTKLTVL	4.24	0.002	473000
C0021032 Fab (Fab, V domains shown, Human Fab) VH: EVQLLESGGGLVQPGGSLRLSCAASGFTFSSYAMSWVRQAPGKGLEWVSAYGYGIGSTYYADSVKGRFTISRDNSKNTLYLQMNSLRAEDTAVYYCARLRADLGLYMDLWGRGTLVTVSS VL: QSVLTQPPSVSAAPGQKVTISCSGSSSNIGNHYVSWYQQLPGTAPKLLIYDNSERPSGIPDRFSGSKSGTSATLGITGLQTGDEADYYCGTWDSSLSALVFGGGTKLTVL	5.33	0.00228	427000
C0021097 Fab (Fab, V domains shown, Human Fab) VH: EVQLLESGGGLVQPGGSLRLSCAASGFTFSSYAMSWVRQAPGKGLEWVSAISYHPGSTYYADSVKGRFTISRDNSKNTLYLQMNSLRAEDTAVYYCARLRADLGLYMDLWGRGTLVTVSS VL: QSVLTQPPSVSAAPGQKVTISCSGSSSNIGNHYVSWYQQLPGTAPKLLIYNTFARPSGIPDRFSGSKSGTSATLGITGLQTGDEADYYCGTWDSSLSALVFGGGTKLTVL	4.95	0.00146	295000
C0021118 Fab (Fab, V domains shown, Human Fab) VH: EVQLLESGGGLVQPGGSLRLSCAASGFTFSSYAMSWVRQAPGKGLEWVSASLTNPGSTYYADSVKGRFTISRDNSKNTLYLQMNSLRAEDTAVYYCARLRADLGLYMDLWGRGTLVTVSS VL: QSVLTQPPSVSAAPGQKVTISCSGSSSNIGNHYVSWYQQLPGTAPKLLIYDNSERPSGIPDRFSGSKSGTSATLGITGLQTGDEADYYCATYDTNLSALVFGGGTKLTVL	8.23	0.00114	139000
C0021142 Fab (Fab, V domains shown, Human Fab) VH: EVQLLESGGGLVQPGGSLRLSCAASGFTFSSYAMSWVRQAPGKGLEWVSAHTHSPGSTYYADSVKGRFTISRDNSKNTLYLQMNSLRAEDTAVYYCARLRADLGLYMDLWGRGTLVTVSS VL: QSVLTQPPSVSAAPGQKVTISCSGSSSNIGNHYVSWYQQLPGTAPKLLIYDNSERPSGIPDRFSGSKSGTSATLGITGLQTGDEADYYCGTWDSSLSALVFGGGTKLTVL	2.77	0.0011	399000
C0021096 Fab (Fab, V domains shown, Human Fab) VH: EVQLLESGGGLVQPGGSLRLSCAASGFTFSSYAMSWVRQAPGKGLEWVSAISGYSGYYADSVKGRFTISRDNSKNTLYLQMNSLRAEDTAVYYCARLRADLGLYMDLWGRGTLVTVSS VL: QSVLTQPPSVSAAPGQKVTISCSGSSSNIGNHYVSWYQQLPGTAPKLLIYNTERRMSGIPDRFSGSKSGTSATLGITGLQTGDEADYYCGTWDSSLSALVFGGGTKLTVL	3.48	0.00154	441000
C0021101 Fab (Fab, V domains shown, Human Fab) VH: EVQLLESGGGLVQPGGSLRLSCAASGFTFSSYAMSWVRQAPGKGPEWVSAISGFSPYYADSVKGRFTISRDNSKNTLYLQMNSLRAEDTAVYYCARLRADLGLYMDLWGRGTLVTVSS VL: QSVLTQPPSVSAAPGQKVTISCSGSSSNIGNHYVSWYQQLPGTAPKLLIYNNRSPTSGIPDRFSGSKSGTSATLGITGLQTGDEADYYCGTWDSSLSALVFGGGTKLTVL	3.41	0.00107	314000
C0021141 Fab (Fab, V domains shown, Human Fab) VH: EVQLLESGGGLVQPGGSLRLSCAASGFTFYPDPQGWVRQAPGKGLEWVSAYGYGIGSTYYADSVKGRFTISRDNSKNTLYLQMNSLRAEDTAVYYCARLRADLGLYMDLWGRGTLVTVSS VL: QSVLTQPPSVSAAPGQEVTISCSGSSSNIDNHYVSWYQQLPGTAPKLLIYDNSERPSGIPDRFSGSKSGTSATLGITGLQTGDEADYYCGTWDSSLSALVFGGGTKLTVL	3.33	0.00108	326000
